Test: sequential release of drugs from core-shell nano-disordered electrospun fiber structure
Type: physicochemical
Conditions: composite electrospun layer of Example 1; roxithromycin in shell layer fiber, human epidermal growth factor in core layer fiber
Text: Moreover, the transmission electron microscopic image of the core-shell nano-disordered electrospun fiber structure in the composite electrospun layer prepared in Example 1 is shown in FIG. 3. […] The coaxial electrospinning realizes the sequential and timed release of the two drugs in the same electrospun layer. Further, the electrospun layer can be prepared by triaxial electrospinning or multiaxial electrospinning process, which has a core-shell structure of three core layers or multi-core layers, thereby achieving the sequential and timed release of three or more drugs in the same electrospun layer.

B1: human epidermal growth factor: growth factor gel loaded in PVA core layer fiber (protein, UniProt P01133 23-1207, looked up)
Pro-epidermal growth factor: PQHWSCPEGTLAGNGNSTCVGPAPFLIFSHGNSIFRIDTEGTNYEQLVVDAGVSVIMDFHYNEKRIYWVDLERQLLQRVFLNGSRQERVCNIEKNVSGMAINWINEEVIWSNQQEGIITVTDMKGNNSHILLSALKYPANVAVDPVERFIFWSSEVAGSLYRADLDGVGVKALLETSEKITAVSLDVLDKRLFWIQYNREGSNSLICSCDYDGGSVHISKHPTQHNLFAMSLFGDRIFYSTWKMKTIWIANKHTGKDMVRINLHSSFVPLGELKVVHPLAQPKAEDDTWEPEQKLCKLRKGNCSSTVCGQDLQSHLCMCAEGYALSRDRKYCEDVNECAFWNHGCTLGCKNTPGSYYCTCPVGFVLLPDGKRCHQLVSCPRNVSECSHDCVLTSEGPLCFCPEGSVLERDGKTCSGCSSPDNGGCSQLCVPLSPVSWECDCFPGYDLQLDEKSCAASGPQPFLLFANSQDIRHMHFDGTDYGTLLSQQMGMVYALDHDPVENKIYFAHTALKWIERANMDGSQRERLIEEGVDVPEGLAVDWIGRRFYWTDRGKSLIGRSDLNGKRSKIITKENISQPRGIAVHPMAKRLFWTDTGINPRIESSSLQGLGRLVIASSDLIWPSGITIDFLTDKLYWCDAKQSVIEMANLDGSKRRRLTQNDVGHPFAVAVFEDYVWFSDWAMPSVMRVNKRTGKDRVRLQGSMLKPSSLVVVHPLAKPGADPCLYQNGGCEHICKKRLGTAWCSCREGFMKASDGKTCLALDGHQLLAGGEVDLKNQVTPLDILSKTRVSEDNITESQHMLVAEIMVSDQDDCAPVGCSMYARCISEGEDATCQCLKGFAGDGKLCSDIDECEMGVPVCPPASSKCINTEGGYVCRCSEGYQGDGIHCLDIDECQLGEHSCGENASCTNTEGGYTCMCAGRLSEPGLICPDSTPPPHLREDDHHYSVRNSDSECPLSHDGYCLHDGVCMYIEALDKYACNCVVGYIGERCQYRDLKWWELRHAGHGQQQKVIVVAVCVVVLVMLLLLSLWGAHYYRTQKLLSKNPKNPYEESSRDVRSRRPADTEDGMSSCPQPWFVVIKEHQDLKNGGQPVAGEDGQAADGSMQPTSWRQEPQLCGMGTEQGCWIPVSSDKGSCPQVMERSFHMPSYGTQTLEGGVEKPHSLLSANPLWQQRALDPPHQMELTQ
modifications: Pro-epidermal growth factor
notes: growth factor gel loaded in PVA core layer fiber
- order of drug release from core-shell fiber: subsequently released

Source: patent publication US20250134683A1, “MICRO-NANO MEDICAL STENT FOR DIRECTIONAL, QUANTITATIVE AND TIMED RELEASE OF DRUG AND PREPARATION METHOD THEREOF” (GUANGDONG UNIVERSITY OF TECHNOLOGY, priority 2023, published 2025)
